# Source: the nanobody polyreactivity screen of Harvey et al. (2022)
# Test: yeast display, Sf9 membrane polyspecificity reagent, FACS + sequencing; frameworks hold sequencing errors
# Outline: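 Galactose induction of a Saccharomyces cerevisiae BJ5465 synthetic nanobody display library ran 36–48 hours. The cells were then stained for 1 hour at 4 °C with 10% biotinylated, detergent-solubilized Sf9 membrane reagent, pulled down on streptavidin microbeads and FACS-sorted into low and high (top ~1%) gates on expression and reagent-binding fluorescence. Labels for polyreactivity follow the gate of origin.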
row,Sequence,polyreactivity (PSR sort gate)
1,QVQLVESGGGLVQAGGSLRLSCAATGRIFTYYAMGWYRQAPGKERELVAGISGSGTSTYYADSVKARFTISRDNAKNTVDLQINSLKPEDTAVYYSAADVFRDDVWLDYWGQGTQVTVSS,low polyreactivity
2,QVQLVESGGGLVQAGGSHRLSCAASGIIFRFYAMGCYRQAPGTERELVAAITSSGGSTYYADSVKGRFTISRDNAKNTVYLQMNSLNPEDTAVYYCYARVFSQSHYYYWGQGTQVTLSS,high polyreactivity
3,QGQLVESGGGLFQAGGSLRLSCAASGRIFRRYAMGWDIQAPGKERELVAAISRGGSTYYADSVKGRFTISRDNAKNTVYLQMNSLKPEDTAVYYCAAYSQSTSFGGYDSWGQGTQVTVSS,high polyreactivity
4,QVQLVESGGGLVQAGGSLRLSCAASGSTFYYYTMGWYRQAPGKEREFVAAITVGGGSTYYADSEKGRFTISRDNAKNTVYLQMNSLKPEDTAVYYCAKEVGRYLGTVSYEYDYWGQGTQVTVSS,high polyreactivity
5,QVQLVESGGGLVQAGGSLRLSCAASGSIFYRNVMGWYRQAPGKERELVATISRGGTSNYADSVKGRFTISRDNAKNTVYLQMNSLKPEDTAVYYCAAPIGDVYVGKGYDSWGQGTQVTVSS,low polyreactivity
6,QGQLVESGGGLVQAGGSLRLSCAASGSTFDYYVMGWYRQAPRKERELVAAISSGDSTNYADSVKGRFTISRDNAKNTVYLQMNSLKPEDTAVSYCAAEYTVHYDYWGQGTQVTVSS,low polyreactivity
7,QVQLVESGGGLVQAGGSLRLSCSASGRIFRYNGKGWYRQAHGKERELVAVITHRSGTTSYADSVKGRFTISRDNAKNTVYLQMNSLKPEDTAVYYCARGYYKPSVGKSKRVGGNYLGQGTQVTVSS,high polyreactivity
8,QVQIVESGGGLVQAGGSLRLSCAASGFIFRRNAMGWYRQAPGKERELVATIRASGGRTYYADSVKGRFTISRDNAKNTVYLQRNSLKPEDTAVYYCNAGKAPYLRYDYWGQGTEVTVSS,high polyreactivity
9,QGQLVESGGGLVQAGGSLRLSCAPSGSTVWVNVMGCYSPARGKERELVAAIDSGGSTYYADSVKGRFTISRDKAKNTVYLQMISLKPEDTAVYYCNARVDTPSPYDYWGQGTQVTVSS,low polyreactivity
10,QVQLVESGGGLVQAGGSLRLSCAASGSIFLYYAMGWYRQAPGKERELVAAITGGGGTNYADSVKGRFTISRDNAKNTVYLQMNSLKPEDTAVYYCAADTSGQFPYSYYNYDYDYWGQGTQVTVSS,low polyreactivity
11,QVQLVESGGGLVQAGGSLRLSCAASGFIFPVNARGGSRQAPGKERELHADISSDGSTNYADSVKGRFTISRDNAKNTVYLQMNSLKPEDTAVYYCAREDNLRHQSDSRYDYWGQGTQVTVSS,low polyreactivity
12,QVQLVESGGGLVQAGGSLRLSCAASGFIFGYYAMGWYRQAPGKERELVAAISGDAGRTYYADSVKGRFTISRDNAKNTVYLQMNSLKPEDTAVYYCADADTYKMDYWGQGTQVTVSS,low polyreactivity
13,QVQLVESGGGLVQAGGSLRLSCAASGRTLYIYAMGWYRQAPGKERELVAAITRRGDSTYYADSVKGRFTISRDNAKNTVYLQMNSLKPEDTAVYYCAADFQDTSSQYDPAYEYWGQGTQVTVSS,low polyreactivity
14,QVQLEESGGGLVQAGGSLRLSCAASGRIFGWYTMGWYRQAPGKERELVAAINFSGSRTYYADSVKGRFTISRDNAKNTVYLQMNSLKPEDTAVYYCNAVYHQFREEYWGQGTQVTVSS,high polyreactivity
15,QVQLVESGGGLVQAGGSLRLSCAASGRIFRAYAMGWYRQAPGKERELVADIRGGGSTNYADSVKGRFTISRDNAKNTVYLQMNSLKPEDTAVYYCNAAAYRGMRQGPRYYYWGQGTQVTVSS,high polyreactivity
16,QVQLVETGAGLVQAGGSLRLSCAASGRTFDDNAMGWSRQATGEVRELVAAISSTGSTNYADSVKGRFTISRDNAKNTVYFQMNSLKPEDTAVYYCNTDRGHERAFYYWGQGTQVTVSS,low polyreactivity
17,QGQLVESGGGLVQAGGSLRLSCAASGSTFTYNAMGWYRQAPGKERELVASISSGTTTYYADSVKGRFTISRDNAKNTVYLQMNSLKPEDTAVYYCAVDSWSRVQGWLAHNYDYWGQGTQVTVSS,low polyreactivity
18,QVQLVESGGGLVQAGGSLRLSCAASGSTFTYYSMGWYRQAPGKERELVDAITGRGGRTYYADSVKGRFTISRDNAKNTVYLQMNSLKPEDTAVYYCARYQSSDTYWTKYDYWGQGTQVTVSS,high polyreactivity
19,QVQLGESGGGLVQAGGSLRLSCAASGIIFRYYAMGWYRQAPGKERELVAAISSSGVSTYYADSVKGRFTISRDNAQNTVYLQMNSLKPEDTAVYYCAAVTTWRMDYWGQGTQVTVSS,high polyreactivity
20,QVQLVESGGGLVQAGGSLRLSCAASGSNFYHYAMGWYRQAPGKERELVAAITRSGGSTYYADSVKGRFTISRDNAKNTVYLQLNSLKPEDTAVYYCAKDPDSYNFLTSNWYDYWGQGTQVTVSS,low polyreactivity
21,QVQLVESGGGLVQAGGSLRLSCAASGTFRRYPMGWYRQEPGKERELVAAITSSGGTYYADSVKGRFTISRDNAKHTVYLQMNSLKPEDTALYYCAARDYWSRYFRPGIVGWHDYWGQGTQVTVSS,high polyreactivity

row,Sequence,polyreactivity (PSR sort gate)
1,QVQLVESGGGLVQAGGSLRLSCAASGSIFAINAMGWYRQAPGKERELVARISWSGGRTYYADSVKGRFTISRDNAKNTVYLQMNSLKPEDTAVYYCAKRYYKSLNRDEFDSWGQGTQVTVSS,high polyreactivity
2,QVQLGESGGGLVQAGGSLRLSCAASGSIFYFNAMGWYRQAPGKERELVAAISWSGRTYYADSVKGRFTISRDNAKNTVYLQMNSLKPEDTAVFYCAAKNTGRYYWGQGTQVTVSS,high polyreactivity
3,QVQLVESGGGLVQAGGSLRLSCAASGSIFHYNAMGWYRQAPGKERELVARISVNGGRTYYADSVKGRFTISRDNAKNTVYLQMNSLKPEDTEVYYCAVEGVWRSFFYGYDSWGQGTQVTVSS,low polyreactivity
4,QVNLEESGGGLVQAGVILRLSSAASGSIFYRNAMGWYRQAPGKEREWVAAISSGGSTYYADSVKGRFTISRDNAKNTVYLQMNSLKPEETAVYYCAKDAHIWGYRDYEYWGLGTQVTVSS,high polyreactivity
5,QVQLVESGAGLVQAGGTLRLSCAASGRTRQYNDMGWYRQAPGKERELVAAMTWSGGLTYYADSVKGRFTISRDNAKNTVYLKMNCLKPEDTAVYYCAVDGGTPGALRRFNYWGQGTQVTVSS,high polyreactivity
6,QVQLVESGGGLVQAGGSLRLSCAASRSTLSTYAMGWYRQAPGTERELVAAITWSDDSTYYADSVKGRFTISRDNAKNTVYLQMNSLKPEDTAVYYCAAEYISWFFGYDYWGQGTQVTVSS,high polyreactivity
7,QVHLLDSVGGLVQAGGSLRLSCAACGRIVGTNAMGWYRQAPGKERELVATITRGGGNTYYADSVKGRFTISRDNAKNTVYLQLNSLKPEDTAGYDCAAKFHRFAWYSHYAYWGQGTQVTVSS,low polyreactivity
8,QVQLVESGGGLVQAGGSLRLSCAASGLIFSSNAMGWARQAPGKEREWVAAITSGGSTNYADSVKGRFTISRDNAHNTVYLQMNSLKPEDTAVYYCNAVSPHYFGGSYDYWGQGTQVTVSS,low polyreactivity
9,QVQLVESGGGLVQAGGSLRLSCAASGIIFVGYAMGWYRQAPGKERELVAAISSGGSTNYADSVKGRFTISRDNAKNTVYLQMNSLKPEDTAVYYCATDSGDGEGDYWGQGTQVTVSS,low polyreactivity
10,QVQLVESGGGLVQAGGSLRLSCAASGSTFYANLMGWYRQAPGKEWEFVAAIDGSGGRTYYADSVKGRFTISRDNAKNTVYLQMNSLKPEVTAVYYCAKKRIVPVIQFGRDYNYWGQGKQVTVSS,high polyreactivity
11,QFQLVESGGALVQAGGSLRLSCAASGSTFTGYTMGWYRQAPGKERELVAAINWSGGRTYYADSVKGRFTISRDNAKNTVYLQMNSLKPDDTAVYYCAVRSRSLGGYLGQGTQVTVSS,high polyreactivity
12,QVQLVESGGGLVQAGGSLRLSCAASGSIFNYYAMGRYRQAPGKERELVAAIETTGGSTYYADSVKGRFTISRDNAKNTVYLQMNSLKPEDTAVYYCAATWAKPWYYEYDYWGQGTQVTVSS,low polyreactivity
13,QVQLVESAGGLVQAGGSLRLSCAASVSTIAPNAMGWYRQAPGKERELVASIRRGGSTHYADSVKGSFTISRDNAKNTVYLQMNSLKPEDTAVYYCAKDVWRHYLNLYDYWGQGTQVTLSS,low polyreactivity
14,QFQLVESGGGLVQAGGSLRLSCAASGRIFGVYARGWYRQAPGKERELVAAISSTGGSTYYADSVKGRFTISRDTAKNTVYLQMNSLKPEDTAVYYCEYDYWGQGTQVTVSS,low polyreactivity
15,QVQLVESGGGLVQAGGSLRLSCAASGRTFRYYTMGWYRQAPGKEREFVAAISSTGGTYYADSVKGRFTISRDNAKNTVYLQMNSLKPEDTAVFYGAATFIQVVVNGQLYDYDYWGQGTQVTVSS,low polyreactivity
16,QVQLVESGGGLVQAGGSLRLSCAASGSTFWYNAMGWYRQAPGTEREFVAAISSRGGNTFYADSVKGRFTISRDNAKNTVYLQMNSLKPEDTAVYYCDARFNRPYDYWGQGTQVTVSS,low polyreactivity
17,QVQLVESGGGLVQAGGSLGLSCAASGNMFGRYAMGWYRQAPGKEREYVATITYSGGSTYYADSVKGPFTISRDNAKNTVYLQMNSLKQEDTAVYYCAARVGRPTLVAAKYDYWGQGTQVTVSS,high polyreactivity
18,QVQLVESGGGLVQAGGSLRLSCAASGSIFAWNAMGWYRQAPGKERELVAAIRWSSGRTNYADSVKGRFTISRDNAKNTVYLQMNSLKPEDTAVYYCNARVVNYFRPRTGAREYDYWGQGTQVTVSS,high polyreactivity
19,QVQLVESGGGLVQAGGSLRLSCAATGLTFSTNTMGWYRQAPGKEREFVAAITARGGRTYYADSVKGRFTISRDNAKNTVYLQMNCLKPEDTAVYYCAANAYTYYARIGFDYWGQGTQVTVSS,high polyreactivity
20,QVQLVESGGGLVQAGGSLRLSCAASGRTFTEYAMGWYSQAHGKERELVARISIGDSTYYADSVKGRFTISRDNAKNTVYLQMNSLKPEDTAVFYCNAEYSRSYRYDEGYWGQGTQVTVSS,low polyreactivity
